We go through four proteins from publication PMC7057950 (Nature Communications, 2020).

B1: human Hsp90β K607A (natural protein)
chain: not shown
notes: Hsp90β, human; pET28 vector, site-directed mutagenesis; source: E. coli BL21 (DE3) cod+, purified (HisTrap, Resource Q, Superdex 200)
B2: human Hsp90β K607E (natural protein)
chain: not shown
notes: as for B1
B3: human Hsp90β K607I (natural protein)
chain: not shown
notes: as for B1
B4: human Hsp90β K607R (natural protein)
chain: not shown
notes: as for B1

The data set deals with the molecule itself. In words: SEC; Hsp90 dimerization assay: dilution series on Superdex 200 increase 10/300 GL (Shimadzu HPLC), fluorescence detection, 25 °C, 40 mM Hepes pH 7.5, 150 mM KCl, 5 mM MgCl2, 2 mM DTT; human Hsp90β 2 nM to 4 µM, yeast Hsp90 16 nM to 2 µM; KD = KD(app) divided by the dilution factor (about 4); dimer to monomers. (In gel filtration, larger molecules generally elute earlier.)
As to B1, the binding result is given as “binds”.

For B2, the binding result was “binds”.

As for B3, the binding result was “binds”.

On to B4, for which the binding result is on record as “binds”.
